{"source": "patent US20230117831", "proteins": {"B1": {"name": "AMPK α1β1γ1-His tag (SignalChem P47-10H) (protein)", "chain 1": "MRRLSSWRKMATAEKQKHDGRVKIGHYILGDTLGVGTFGKVKVGKHELTGHKVAVKILNRQKIRSLDVVGKIRREIQNLKLFRHPHIIKLYQVISTPSDIFMVMEYVSGGELFDYICKNGRLDEKESRRLFQQILSGVDYCHRHMVVHRDLKPENVLLDAHMNAKIADFGLSNMMSDGEFLRTSCGSPNYAAPEVISGRLYAGPEVDIWSSGVILYALLCGTLPFDDDHVPTLFKKICDGIFYTPQYLNPSVISLLKHMLQVDPMKRATIKDIREHEWFKQDLPKYLFPEDPSYSSTMIDDEALKEVCEKFECSEEEVLSCLYNRNHQDPLAVAYHLIIDNRRIMNEAKDFYLATSPPDSFLDDHHLTRPHPERVPFLVAETPRARHTLDELNPQKSKHQGVRKAKWHLGIRSQSRPNDIMAEVCRAIKQLDYEWKVVNPYYLRVRRKNPVTSTYSKMSLQLYQVDSRTYLLDFRSIDDEITEAKSGTATPQRSGSVSNYRSCQRSDSDAEAQGKSSEVSLTSSVTSLDSSPVDLTPRPGSHTIEFFEMCANLIKILAQ", "chain 2": "MGNTSSERAALERHGGHKTPRRDSSGGTKDGDRPKILMDSPEDADLFHSEEIKAPEKEEFLAWQHDLEVNDKAPAQARPTVFRWTGGGKEVYLSGSFNNWSKLPLTRSHNNFVAILDLPEGEHQYKFFVDGQWTHDPSEPIVTSQLGTVNNIIQVKKTDFEVFDALMVDSQKCSDVSELSSSPPGPYHQEPYVCKPEERFRAPPILPPHLLQVILNKDTGISCDPALLPEPNHVMLNHLYALSIKDGVMVLSATHRYKKKYVTTLLYKPI", "chain 3": "METVISSDSSPAVENEHPQETPESNNSVYTSFMKSHRCYDLIPTSSKLVVFDTSLQVKKAFFALVTNGVRAAPLWDSKKQSFVGMLTITDFINILHRYYKSALVQIYELEEHKIETWREVYLQDSFKPLVCISPNASLFDAVSSLIRNKIHRLPVIDPESGNTLYILTHKRILKFLKLFITEFPKPEFMSKSLEELQIGTYANIAMVRTTTPVYVALGIFVQHRVSALPVVDEKGRVVDIYSKFDVINLAAEKTYNNLDVSVTKALQHRSHYFEGVLKCYLHETLETIINRLVEAEVHRLVVVDENDVVKGIVSLSDILQALVLTGGEKKP"}}, "key": {"[1]": {"molecular_target": "T1, BRD4 peptide S358", "T1 chain": "EQLKCCSGILKEMRR"}, "[2]": {"molecular_target": "BRD4-GST (BD1 and BD2 (49-460)) (BPS Bioscience 31044), O60885"}, "[3]": {"molecular_target": "T2, BRD4 peptide T169", "T2 chain": "ELPTEETEIMIVQRR"}, "[4]": {"molecular_target": "T3, BRD4 peptide S325", "T3 chain": "GQRRESSRPVKPPRR"}, "[5]": {"molecular_target": "T4, BRD4 peptide S338", "T4 chain": "KKDVPDSQQHPAPRR"}}}
{"protein": "B1", "values": [{"measurement": "ADP-Glo assay, phosphorylation of the peptide by AMPK compared with the SAMS peptide", "setting": "[1]", "result": "these peptides showed a 250-fold lower preference for phosphorylation than AMPK's natural ACC substrate-SAMS peptide"}, {"measurement": "BRD4 phosphorylation, western blot with phospho-AMPK substrate motif antibody", "setting": "[2]", "result": "Applicants observed BRD4 phosphorylation only when PHICS, BRD4, and kinase were present"}, {"measurement": "ADP-Glo assay, phosphorylation of the peptide by AMPK compared with the SAMS peptide", "setting": "[3]", "result": "these peptides showed a 250-fold lower preference for phosphorylation than AMPK's natural ACC substrate-SAMS peptide"}, {"measurement": "ADP-Glo assay, phosphorylation of the peptide by AMPK compared with the SAMS peptide", "setting": "[4]", "result": "these peptides showed a 250-fold lower preference for phosphorylation than AMPK's natural ACC substrate-SAMS peptide"}, {"measurement": "ADP-Glo assay, phosphorylation of the peptide by AMPK compared with the SAMS peptide", "setting": "[5]", "result": "these peptides showed a 250-fold lower preference for phosphorylation than AMPK's natural ACC substrate-SAMS peptide"}]}
